Laboratory results from article PMC9464622, “The collectin SP-A and its trimeric recombinant fragment protect alveolar epithelial cells from the cytotoxic and proinflammatory effects of human cathelicidin in vitro” (Frontiers in Immunology, 2022).
pKd: −log10 of the molar value.

Assays:
[1] = target: Human surfactant protein A (native SP-A) (human) (UniProt Q8IWL2); test: native gel or EMSA + AUC + other: electron microscopy; degree of oligomerization of isolated SP-A: electrophoresis under nondenaturing conditions, electron microscopy and analytical ultracentrifugation, as reported elsewhere (refs 28, 29)
[2] = target: Recombinant trimeric fragment of human SP-A1 (rfhSP-A) (human); test: other fluorescence titration; intrinsic tryptophan fluorescence of SP-A (75 nM) or rfhSP-A (52 nM) titrated with LL-37; 25°C, 5 mM Tris-HCl pH 7.4, without NaCl; excitation 295 nm; fit to the Hill equation; apparent KD
[3] = target: Human surfactant protein A (native SP-A) (human) (UniProt Q8IWL2); test: other fluorescence titration; intrinsic tryptophan fluorescence of SP-A (75 nM) or rfhSP-A (52 nM) titrated with LL-37; 25°C, 5 mM Tris-HCl pH 7.4, with 150 mM NaCl; excitation 295 nm; fit to the Hill equation; apparent KD
[4] = target: Recombinant trimeric fragment of human SP-A1 (rfhSP-A) (human); test: as above

stoichiometry N [1] [subunits] | pKd [2] | pKd [3] | pKd [4] | Substance
> 18 | – | – | – | Human surfactant protein A (native SP-A) (from UniProt Q8IWL2 21-248) (natural protein)
– | 10.13 | 9.35 | 8.92 | Human cathelicidin LL-37 (peptide)
